The text below walks through data of the nanobody polyreactivity screen of Harvey et al. (2022).

A short description of the data set: yeast display, Sf9 membrane polyspecificity reagent, FACS + sequencing; frameworks hold sequencing errors. The gist of the method:
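A nanobody's polyreactivity label depends on the gate it was sorted from. Yeast display cells were stained with 10% biotinylated, detergent-solubilized Sf9 membrane reagent for 1 hour at 4 °C, enriched on streptavidin microbeads and sorted by FACS. The low and high (top ~1%) gates were set on anti-HA fluorescence for expression and streptavidin fluorescence for reagent binding.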
In the case of “QVQLVESGGGLVQVGGSLRLSCAASGITFSYYSMGWYRPAPGKERELVAAISQRGGSTYYADSVKGRFTISRDNAKNTVYLQMNSLKPEDTAVYYCAAAYRGANYGYGFDYWGQGTQVTVSS”, the “polyreactivity (PSR sort gate)” value is on record as “high polyreactivity”. In the case of “QVQLVESGGGLVQVGGSLRLSCAASGSIFAINAMGWYRQAPGKERELVAAIRRRDGNTYYADSVKGRFTISRDNAKNTVYLQMNSLKPEDTAVYYCNTYSRRTSVIAYRYNYWGQGTQVTVSS”, the “polyreactivity (PSR sort gate)” value was “high polyreactivity”. As for “QVQLVESGGGLVQVGGSLRLSCAASGSIFVENAMGWYRQAPGKERELVAAITSGGSTNYADSVKGRFTISRDNAKNTVYLQMNSLKPEDTAVYYCNADENYGYYTHFGYWGQGTQVTVSS”, the “polyreactivity (PSR sort gate)” value is given as “low polyreactivity”. Under “QVQLVESGGGSVQAGGSLRFSCADSGFTFRKNAMGWYRQAPGKERELVAAISVSGGRTYYADSVKGRFTISRDNAKNTFYLQMNSLKPEETAVYYCAARRYVLVHKDDYWGQGTQVTVSS” stands “high polyreactivity”; under “QVQLVESGGGSVQAGGSLRLSCAASGRTFVRYAMGWYRQAPGKERELVAAITWSGGSTYYADSVKGRFTISRDNAKNTVYLQMNSLKPEDTAVFDCAAYPVQWGSLYDYWGQGTQVTVSS”, “high polyreactivity”. The same measure for “QVQLVESGGGVDQAGGSLRLSCAASGSIFDLNARGGYRQAPGTERELVASIRDSGGRTYYADSVKGRFTISRDNAKNTVYLQMNSLKPEDTALYYCAAKPRRPGRGYWGQGTQVTVSS”: “high polyreactivity”. The same measure for “QVQLVESGGGVVQAGGRLRLSCAASGFTFGSNDMGWYRQAPGKETELVAAIDGSGDTYYADSVKGRFTISRDNAKNTVDLQMNSLKPEDTAVYYCAADVIYWFSGEYDYWGQGTQVTVSS”: “low polyreactivity”; for “QVQLVESGGGVVQAGGSLRFSCAASGRTFVVNAMGWYREAPGKERELVAAITRRGGITYYADSVKGRFTISRDNAKNSVYLQMNSLTPEDTAVYYCAADRSYYPDTRTTYGYNYWGQGTQVTVSS”: “low polyreactivity”. “QVQLVESGGGVVQAGGSLRISGAASGSIFPFNAMVWYRQAPGKERELVAAIRRSGGSTYYADSVQGRFTISRYNAKNTVDLQMNSLKPEATAVYYCATDPEWPLPAYYYWGQGTQVTVSS”: the “polyreactivity (PSR sort gate)” value is listed as “low polyreactivity”.

Turning to “QVQLVESGGGVVQAGGSLRLSCAASGFIFFINDMGWDRQAPGKERELVAAISWSGGSTYYADSVKGRFTISRDNAKNTVYLQMNSLIPEDTAVYYCNTDVPTAQYDYWGQGTQVTVSS”, the “polyreactivity (PSR sort gate)” value was “low polyreactivity”.

On to “QVQLVESGGGVVQAGGSLRLSCAASGFIFGYYATGWYRQAPGKERELVDAFTRSGGSTRYADSVKGRFTISRDNAKNTVYLHMNSLKPEDSAVYYCNAYAPRQLYGYDYWGQGTQVTVSS”, for which the “polyreactivity (PSR sort gate)” value is given as “high polyreactivity”. The same measure for “QVQLVESGGGVVQAGGSLRLSCAASGFTFWRYAMGWSRQAPGKDRELVAVITWSGTRTYYADSVKGRFTLSRDTAKITVYVQMNSLNPDAPAVYYCAAYITDVAGRAYDYWGQGTQVTVSS”: “high polyreactivity”; for “QVQLVESGGGVVQAGGSLRLSCAASGITFSYYTMGWSRQAPGKERELVAAINWTGGDTYYADSVKGRFTISRDNAKNTVYLQMNSLNPEDTAVYYCNADYPYFYRFTAEYDYWGQGPQVTVSS”: “low polyreactivity”; for “QVQLVESGGGVVQAGGSLRLSCAASGRICVRYAMGWYRQAPGKERELVAAISTRGGSTYYADSVKGRFTISRDNAKYTVYFQMNSLKPEDTAVYYCAARGVGPQPGYQRFNYWGQGTQVTVSS”: “high polyreactivity”. The same measure for “QVQLVESGGGVVQAGGSLRLSCAASGRIFDIYAMGWYRQAPGKARELVAAITRGGSTYADSVKGRFTISRDNAKYTVYLQMNSLKPEVTAVYYCAASLYSYRSPYTFYYWGQGTQVTVSS”: “high polyreactivity”. Under “QVQLVESGGGVVQAGGSLRLSCAASGRIFHRYTMGWYRQARGKERELVAVISGLGGSTYYADSVKGRFTISRDNAKNTVYLQMNSLKPEDTAVYYCNRVGKYWSSDDSWGQGTQVTVSS” stands “high polyreactivity”.
